Data on one molecule can be found in US20190315842A1 (DUKE UNIVERSITY, published 2019).

Where no end group is shown, it is not given here. The star is where a group is joined. Biotin = O=C1N[C@H]2[C@H](CS[C@H]2CCCCC(=O)*)N1

Assay [1] concerns the target systemic lupus erythematosus autoantigen SSA. Description: AtheNA Multi-Lyte ANA, Ab at 2.088 ug/ml.
Assay [2] has as its target T1, Sm (sphingomyelin).
T1 construct: in an ANA panel of nuclear antigens Sm is usually the Smith ribonucleoprotein antigen; Kept, but see recheck
The assay is described as follows: AtheNA Multi-Lyte ANA, Ab at 2.088 ug/ml.

Assay [3] addresses ribonucleoprotein (RNP). The assay is described as follows: AtheNA Multi-Lyte ANA, Ab at 2.088 ug/ml.
In assay [4] the target is T2, 15-mer peptide GPPPPIDNGDITSFP (SEQ ID NO: 114) (human).
T2 construct: Immobilized for SPR; also called parent peptide
T2 peptide: GPPPPIDNGDITSFP
Description: assay and antigen not given; Example 10, epitope mapping on the 15-mer peptide.

Assay [5] addresses T3, Complement Factor H (CFH) protein, full-length (human, UniProt P08603 19-1231).
T3 construct: also called full-length CFH; native CFH
The assay is described as follows: immunoblot, SDS-PAGE under non-reducing conditions, antibody at 0.5 µg/ml, anti-human IgG-HRP, chemiluminescence; lane numbers as in Table 10. Background: A western blot detects proteins with antibodies after separation by electrophoresis.

Assay [6] has as its target T4, GPPPPIDNGDITSFP(GGGK-biotin).
T4 construct: also called biotinylated 15-mer peptide; biotinylated 19-mer
T4 peptide: GPPPPIDNGDITSFPGGGK(Biotin)
The assay is described as follows: ELISA: biotinylated peptide captured on immobilized Neutravidin, antibody at 0.5 µg/ml, anti-human IgG-HRP/ABTS, OD 405 nm.

For assay [7], the target named is T5, reduced form of Complement Factor H (CFH), treated with TCEP (human, UniProt P08603 19-1231, disulfides reduced with 10 mM TCEP).
T5 construct: also called reduced CFH; reduced form of CFH
Description: immunoblot, SDS-PAGE under reducing conditions, antibody at 0.5 µg/ml, anti-human IgG-HRP, chemiluminescence; lane numbers as in Table 10.

Assay [8] addresses systemic lupus erythematosus autoantigen SSA. The assay is described as follows: AtheNA Multi-Lyte ANA, Ab at 4.175 ug/ml.
For assay [9], the target named is T1, Sm (sphingomyelin). The assay is described as follows: AtheNA Multi-Lyte ANA, Ab at 4.175 ug/ml.
For assay [10], the target named is ribonucleoprotein (RNP). Description: AtheNA Multi-Lyte ANA, Ab at 4.175 ug/ml.
Assay [11] concerns the target systemic lupus erythematosus autoantigen SSA. The assay is described as follows: AtheNA Multi-Lyte ANA, Ab at 8.35 ug/ml.
The target of assay [12] is T1, Sm (sphingomyelin). Description: AtheNA Multi-Lyte ANA, Ab at 8.35 ug/ml.
Assay [13] addresses ribonucleoprotein (RNP). Description: AtheNA Multi-Lyte ANA, Ab at 8.35 ug/ml.
The target in assay [14] is systemic lupus erythematosus autoantigen SSA. The assay is described as follows: AtheNA Multi-Lyte ANA, Ab at 16.7 ug/ml.
Assay [15] addresses T1, Sm (sphingomyelin). The assay is described as follows: AtheNA Multi-Lyte ANA, Ab at 16.7 ug/ml.
The target of assay [16] is ribonucleoprotein (RNP). The assay is described as follows: AtheNA Multi-Lyte ANA, Ab at 16.7 ug/ml.

T3 sequence (P08603 19-1231 limits assumed): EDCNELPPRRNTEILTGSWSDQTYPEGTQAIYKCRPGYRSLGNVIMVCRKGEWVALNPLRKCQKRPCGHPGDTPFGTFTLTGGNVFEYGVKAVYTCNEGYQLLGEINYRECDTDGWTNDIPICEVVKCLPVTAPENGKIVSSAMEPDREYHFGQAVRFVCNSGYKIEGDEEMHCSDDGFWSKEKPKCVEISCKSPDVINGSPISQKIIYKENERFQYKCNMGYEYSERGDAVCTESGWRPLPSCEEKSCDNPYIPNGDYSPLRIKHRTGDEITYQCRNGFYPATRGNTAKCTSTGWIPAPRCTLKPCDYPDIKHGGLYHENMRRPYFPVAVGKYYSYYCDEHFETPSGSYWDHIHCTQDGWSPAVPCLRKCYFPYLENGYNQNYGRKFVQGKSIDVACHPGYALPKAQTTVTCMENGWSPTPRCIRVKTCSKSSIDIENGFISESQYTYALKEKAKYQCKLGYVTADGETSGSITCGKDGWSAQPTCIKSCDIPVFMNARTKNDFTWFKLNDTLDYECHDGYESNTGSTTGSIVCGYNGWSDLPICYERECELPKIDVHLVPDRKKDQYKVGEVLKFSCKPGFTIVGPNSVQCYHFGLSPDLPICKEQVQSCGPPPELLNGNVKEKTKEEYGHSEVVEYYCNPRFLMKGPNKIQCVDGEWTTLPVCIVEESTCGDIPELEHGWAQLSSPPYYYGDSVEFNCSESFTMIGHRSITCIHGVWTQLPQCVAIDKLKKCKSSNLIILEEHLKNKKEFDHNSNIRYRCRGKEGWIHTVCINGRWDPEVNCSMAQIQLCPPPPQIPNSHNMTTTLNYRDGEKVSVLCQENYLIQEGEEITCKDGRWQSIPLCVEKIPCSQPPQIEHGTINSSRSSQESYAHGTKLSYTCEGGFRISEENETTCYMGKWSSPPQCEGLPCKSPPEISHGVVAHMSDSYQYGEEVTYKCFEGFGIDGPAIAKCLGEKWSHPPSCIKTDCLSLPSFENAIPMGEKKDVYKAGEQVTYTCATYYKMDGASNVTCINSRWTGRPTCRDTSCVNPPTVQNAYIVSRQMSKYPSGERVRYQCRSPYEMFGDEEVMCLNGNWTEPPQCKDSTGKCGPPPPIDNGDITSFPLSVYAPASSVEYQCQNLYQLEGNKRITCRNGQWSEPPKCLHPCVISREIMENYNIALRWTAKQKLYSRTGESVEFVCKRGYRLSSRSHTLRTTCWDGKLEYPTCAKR
T5 sequence (P08603 19-1231 limits assumed): as above

B1: Ab7979 (antibody, IgG1, V domains shown)
VH: LVESGGGVVQPGKSLRLSCVASGFTFSTYGMHWVRQAPGKGLEWVAVMSFDGKTKYYADSVKGRFTISRDNPKNTLYLQMNSLRSEDTAVYYCAKGGAAAAVFDSWGQGILLTVSS
VL: MTQSPNSLAVSLGGRATINCKTSQSILYRSNNKNYLAWYQHKPGQPPKLLIYWASTRESRVPDRFSGSGSRTDFTLTISGLQAEDVAVYYCQQYYNPPWTFGQGTKVEIK
notes: Recombinant human antibody with IgG1 heavy chain backbone and kappa light chain constant; they begin at LVESGGG and MTQSP; also called Ab7979/239i; mAb 7979
As to B1, the AtheNA signal in [1] stood at 119; in assay [2] it was 45; in assay [3] it was 29; in [8], 140; in assay [9], 63; in assay [10], 36. For the same molecule, the AtheNA signal in assay [11] worked out at 146; in assay [12] it was 77; in assay [13] it was 38; in assay [14], 144; in [15] it was 92; in [16], 40. In assay [4], a half-maximal response (EC50) required 0.0122 mg/L. In addition, the binding result in assay [5], in assay [6] and in assay [7] was “binds” in each case.

What is called EC50 is the midpoint of the concentration-response curve.
